# The supplement of paper PMC9732359
# ± gives the uncertainty stated by the source.
# Assay: protein stability index of a GFP-peptide fusion (yeast GPS) (PSI 1-4); higher = more stable; sorted into four equal gates, so the index is relative within each strain
# How it was run: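 The protein stability index combines read frequencies across sorting gates, each weighted by its gate number and then summed. To obtain those frequencies, a pooled yeast library of GFP fusions to tiled 17-residue yeast protein peptides, on a plasmid also expressing Cherry, was grown to mid-log phase in leucine-free medium. The cells were sorted into four equal gates by GFP/Cherry ratio before plasmid amplification by PCR and Illumina sequencing.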
Sequence,protein stability index (doa10∆),protein stability index (pdr5∆),protein stability index (san1∆),protein stability index (ubr1∆)
QQRGITYLNEVLEKDAA [YGR119C/NUP57],3.16 ± 0.093,3.27 ± 0.079,3.33 ± 0.061,3.13 ± 0.09
TLLPGLQDEVMNIKPVQ [RPS2],1.21 ± 0.14,1.35 ± 0.13,1.18 ± 0.26,1.09 ± 0.14
VGKRVPIVEDRRVKQLD [SIR4],,,,3.35 ± 0.26
PSTTDDENGDKNDNGGK [SWI3],3.09 ± 0.089,3.3 ± 0.069,3.23 ± 0.05,3.25 ± 0.079
ELENFLDNFETKTEALL [YJL041W/NSP1],2.62 ± 0.12,2.91 ± 0.14,2.72 ± 0.15,1.81 ± 0.1
ASTPSIRPDGRLPHQFR [RRP42],2.9 ± 0.14,3.21 ± 0.12,2.81 ± 0.19,2.99 ± 0.089
GRNLGRIGTIVHKERHD [RPS4A],2.42 ± 0.13,2.03 ± 0.098,2.5 ± 0.059,2.63 ± 0.061
PNRIKLSKEVPFSYLID [SRB5],2.44 ± 0.062,2.15 ± 0.058,1.98 ± 0.1,2.12 ± 0.06
NRVPDGFQDRSLPHFPK [RPO31],3.29 ± 0.16,2.86 ± 0.15,3.02 ± 0.11,3.6 ± 0.2
ANICLTFLESINGINWR [SIN4],2.54 ± 0.043,2.31 ± 0.046,2.46 ± 0.058,2.36 ± 0.042
GGAKSRGVRPYKHIDAS [RPS19A],3.12 ± 0.11,3.38 ± 0.14,2.93 ± 0.082,2.98 ± 0.12
ISDVKIQVAAFIYGMSA [PRP8],,2.17 ± 0.17,1.84 ± 0.12,1.94 ± 0.14
THDGRTIRYPDPNIKVN [RPS4A],1.52 ± 0.13,,,
TIKDLVGGKSTVQNEIL [FAS2],3.03 ± 0.073,2.92 ± 0.1,2.21 ± 0.1,3.24 ± 0.11
NPLMYSGGNNTATIINN [PCI8],2.93 ± 0.064,2.9 ± 0.057,3.12 ± 0.05,3.11 ± 0.045
MGRMHSAGKGISSSAIP [RPS13],2.74 ± 0.043,2.61 ± 0.068,3.11 ± 0.048,2.88 ± 0.041
IMECCQKNDTAAFKDIA [RRP40],3.08 ± 0.16,3.54 ± 0.17,2.95 ± 0.084,3.54 ± 0.077
RETDPLVYNMTSFEQGE [RPT4],3.09 ± 0.12,2.49 ± 0.11,3.23 ± 0.18,2.7 ± 0.068
ETANVASLNLLQLAPGA [RPL4A],2.84 ± 0.14,3.02 ± 0.18,3.29 ± 0.078,3.27 ± 0.11
CNQMENLLESITKLLEI [YCS4],3.19 ± 0.083,2.8 ± 0.054,2.9 ± 0.061,2.96 ± 0.059
KSDSQYRFYEYIYSQET [MED1],2.81 ± 0.068,2.44 ± 0.061,2.74 ± 0.12,2.58 ± 0.07
STVAKNVSFVLPDEKSD [YCG1],3.2 ± 0.058,3.16 ± 0.037,3.09 ± 0.041,3.01 ± 0.038
LHDTQIEGKLHMATALQ [RPN10],2.48 ± 0.22,2.37 ± 0.2,,2.38 ± 0.23
PPAYALLGSCQTDGMGL [RPC25],2.15 ± 0.11,2.57 ± 0.15,2.22 ± 0.19,2.41 ± 0.13
SKQNGIEQSITKNIPIT [SSN8],2.63 ± 0.082,2.67 ± 0.069,2.66 ± 0.079,2.84 ± 0.068
VIWELDDSANIVNVNFM [DIS3],2.96 ± 0.049,2.85 ± 0.057,3.21 ± 0.042,2.99 ± 0.045
ALGEFADWDPESMAYTA [YML031W/NDC1],3.52 ± 0.14,3.54 ± 0.089,3.36 ± 0.083,3.26 ± 0.064
TEDQKVTTNINWRSFNA [SRP68],3.13 ± 0.097,3.16 ± 0.074,3.1 ± 0.058,3.21 ± 0.049

Sequence,protein stability index (doa10∆),protein stability index (pdr5∆),protein stability index (san1∆),protein stability index (ubr1∆)
LMYSITFHHHGRQTVLI [SRB2],3 ± 0.07,3.18 ± 0.071,3.18 ± 0.06,3.12 ± 0.039
STLLCTDLESKSRMINF [SNU114],2.62 ± 0.05,2.96 ± 0.052,2.67 ± 0.044,2.79 ± 0.038
EENNYQYGYSGSSAGMN [SNF6],2.22 ± 0.053,2.16 ± 0.077,1.94 ± 0.12,2.5 ± 0.065
NKNLPFVWLSSEENIGS [SWI1],2.9 ± 0.067,1.84 ± 0.072,1.59 ± 0.063,1.74 ± 0.053
PIKNRKNDTHYLLPDDF [BRN1],2.98 ± 0.079,2.93 ± 0.094,2.85 ± 0.061,2.95 ± 0.058
DLENSPLKTELEANGRS [SSN2],3.6 ± 0.094,3.59 ± 0.093,3.17 ± 0.096,3.51 ± 0.089
GIREKRAREKAEAEAEK [RPL13A],,3.5 ± 0.25,,
TSELGNDDFSEVFEFKT [BRR2],3.04 ± 0.14,3.08 ± 0.097,2.41 ± 0.083,2.7 ± 0.099
KNSSVSSLMNGLGYVFE [SRB5],3.06 ± 0.14,1.72 ± 0.073,2.4 ± 0.1,2.51 ± 0.056
EEDFYTVVGNASFGKNL [DSN1],1.99 ± 0.12,1.38 ± 0.25,2.9 ± 0.23,3.12 ± 0.14
INIDDLLYELTAFKATV [YJL039C/NUP192],2.58 ± 0.052,2.67 ± 0.055,2.41 ± 0.054,2.44 ± 0.043
MTDIWNTLIPESSLTIS [ECM29],2.22 ± 0.064,2.46 ± 0.054,2.14 ± 0.1,2.87 ± 0.058
VGCKNLERLTLVFCKHI [GRR1],1.52 ± 0.062,1.91 ± 0.077,1.25 ± 0.11,1.63 ± 0.084
RRERRLIFGTIASKMSL [RPT3],2.31 ± 0.051,2.48 ± 0.068,2.36 ± 0.048,2.45 ± 0.038
HYVVLDTNVVLQAIDLL [DIS3],2.53 ± 0.093,2.49 ± 0.073,2.23 ± 0.1,2.39 ± 0.064
LVGRLRKCETQKQWDDI [YCS4],2.21 ± 0.069,1.74 ± 0.057,1.53 ± 0.15,1.48 ± 0.072
KEKLTVQDCRYSLASVT [POP1],2.69 ± 0.039,2.62 ± 0.043,2.35 ± 0.043,2.46 ± 0.035
TPVVLATPIPEEVQQAQ [RPS5],2.55 ± 0.099,2.43 ± 0.16,3.1 ± 0.1,2.83 ± 0.13
DPKSPTKRSIAIVFEEI [YMR129W/POM152],2.73 ± 0.074,2.97 ± 0.087,2.77 ± 0.055,2.72 ± 0.078
PETGDHVVGRIAEVGNK [RRP4],3.27 ± 0.076,3.44 ± 0.065,3.05 ± 0.1,3.08 ± 0.15
CITKQDGFKIYDNEKTA [PUP2],2.85 ± 0.1,3.06 ± 0.063,3.1 ± 0.05,2.82 ± 0.095
TKRVEKPQLKFKSPIDN [RRP6],2.88 ± 0.052,3.03 ± 0.061,3.02 ± 0.039,3.137 ± 0.03
GQLISLLFEDLFKKFNN [RET1],3.1 ± 0.17,3.22 ± 0.23,3.34 ± 0.15,
TNENGETDDNIETVMTQ [SRB4],2.79 ± 0.099,2.53 ± 0.076,2.44 ± 0.089,2.5 ± 0.074
LSISVPSDVNIDVMKSQ [SNU114],2.86 ± 0.057,2.84 ± 0.057,2.57 ± 0.053,2.78 ± 0.044
LFGAKPQNTTATTGGLF [YGR119C/NUP57],2.7 ± 0.084,3.06 ± 0.076,2.97 ± 0.12,2.59 ± 0.089
PRVKGFKMNEIVPLHSP [SEC65],2.89 ± 0.087,3.01 ± 0.12,3.09 ± 0.079,2.87 ± 0.066
